How the values were obtained:
[1] = target: Recombinant SSL1 of S. aureus strain Newman (allele type 3) with a C-terminal 6-His tag (Staphylococcus aureus strain Newman)
[2] = target: Recombinant SSL1 of S. aureus ocular isolate 295.236 (allele type 2) (Staphylococcus aureus isolate 295.236)
[3] = target: Recombinant SSL1 of S. aureus strain MW2 (allele type 1) (Staphylococcus aureus strain MW2)
[4] = target: the molecule itself; experiment: gelatin zymography with SDS compared with reduced, denaturing SDS-PAGE

## Recombinant SSL1 of S. aureus strain Newman (allele type 3) with a C-terminal 6-His tag (from UniProt A0A0H3KAV3 31-226) (natural protein)
[1]
  stoichiometry N: 2

## Recombinant SSL1 of S. aureus ocular isolate 295.236 (allele type 2) (from UniProt A0A0H3KAV3 31-226) (natural protein)
[2]
  stoichiometry N: 2

## Recombinant SSL1 of S. aureus strain MW2 (allele type 1) (from UniProt A0A0H3KAV3 31-226) (natural protein)
[3]
  stoichiometry N: 2

B1: Staphylococcus aureus superantigen-like protein SSL1 of strain Newman, native secreted protein (natural protein)
chain: KAEVKQQSESELKHYYNKPILERKNVTGFKYTDEGKHYLEVTVGQQHSRITLLGSDKDKFKDGENSNIDVFILREGDSRQATNYSIGGVTKSNSVQYIDYINTPILEIKKDNEDVLKDFYYISKEDISLKELDYRLRERAIKQHGLYSNGLKQGQITITMNDGTTHTIDLSQKLEKERMGESIDGTKINKILVEMK
notes: also called the toxin; the protease
[4]
  stoichiometry N: 2

— PMC6471365 (Pathogens, 2019)
